# B1: HDV Ribozyme (parent)
# chain: GGCCGGCAUGGUCCCAGCCUCCUCGCUGGCGCCGGCUGGGCAACAUUCCGAGGGGACCGUCCCCUCGGUAAUGGCGAAUGGGACCCA
# Variants of: B1
# Assay: self-cleavage, relative activity (ratio to wild type); higher = more cleavage; co-transcriptional
row,Variant,self-cleavage
1,C14G C49A,0.35
2,C13G G74A,0.0405
3,U20G C36U,0.155
4,C22U G35C,0
5,G6U C63G,0.268
6,A16U G82U,1.06
7,G11C C19U,0.0302
8,G10A U20A,0.0831
9,U37G G67C,0.229
10,A16C A87C,0.671
11,C26A C64U,1.13
12,C36G A83U,0.113
13,C15A C85U,0.755
14,G2A G5C,0.0419
15,C3G C57U,0.75
16,G50C C58A,1
17,C13G U27A,0.391
18,U20A U23G,0
19,C4G C14A,0.0852
20,C57A C61U,1.14
21,U12C C75U,0.104
22,C49U U72G,0.745
23,C18G C44U,0.0426
24,C13U C86A,0.96

row,Variant,self-cleavage
1,A8C G76A,0.95
2,C18U C22G,0.0462
3,C26G U37A,0.213
4,C7A C84A,0.519
5,C32U U72G,0.494
6,U47G G74C,0.222
7,U23G C41A,0.465
8,C22G A51C,0.116
9,A45G G59U,0.931
10,C32U C61A,0.841
11,G52A G59A,1.07
12,C44G G59U,0.81
13,U9A A16G,1.37
14,G31C A56U,0.305
15,U46C G55C,0.554
16,G31U A51G,0.369
17,A51C G74A,0.479
18,G52U C85G,0.791
19,G6C C15U,0.138
20,C13U U47C,0.489
21,C4A C49A,0.424
22,C49U C62G,0.665
23,G29C G50U,0
24,U27A G76U,0.65

row,Variant,self-cleavage
1,C30U C48G,0.597
2,G52U A56C,0.815
3,C7U A77G,0.434
4,U37C A56U,1.09
5,A56C U69G,0.987
6,G35C U46C,0.185
7,U72A G76C,0.65
8,U9G G35A,0.782
9,C36U G82C,0.269
10,C14U G74C,0.369
11,G10U C62G,0.641
12,U37C C48G,1.04
13,C13U C24G,0.0615
14,G1A C61G,0.0831
15,G50A G52C,0.672
16,G17C G68A,0.297
17,G6C A87G,0.288
18,U9G G54U,0.831
19,A56C U65C,1.33
20,A16U G40U,0.964
21,U27A C30U,0.677
22,C44U C61G,0.786
23,C19U C62A,0.142
24,G10C G81C,0.214

row,Variant,self-cleavage
1,G2C C86U,0.0779
2,G31A G39A,0.257
3,C33A A83G,0.144
4,C58U G67A,0.909
5,G82C A87G,0.185
6,C32U C33A,0.161
7,A56U C62A,1.05
8,G50A C63G,0.0475
9,U46C G54U,0.786
10,C15A G74C,0.185
11,C7G U12C,0.111
12,G10A C36A,0.0687
13,G29U G31C,0.141
14,G38C A70C,0.291
15,C32G U79C,0.0205
16,A16U G54C,0.955
17,G6C U60A,0.231
18,G50U C57A,0.911
19,U27A C41A,0.895
20,C21G G81U,0.18
21,C66A A83C,0.527
22,C41A G74A,0.692
23,A51G C58A,0.98
24,C32G G68A,0.185

row,Variant,self-cleavage
1,C4G C33G,0.0583
2,U46C G53A,0.796
3,G38A G76A,0.112
4,C19G G55U,0.04
5,G25C A45U,0.128
6,G40U C49G,0.888
7,C33A G82C,0.17
8,C58U A78C,0.305
9,G54A G68A,0.895
10,A70C A77G,0.808
11,A78U G82A,0.109
12,G5C U20A,0
13,G38C G55C,0.46
14,C13G A83G,0.0361
15,G6C G81A,0.0811
16,C14G C57G,0.782
17,C48U C63A,0.791
18,A45C G68C,0.404
19,A70G A83G,0.692
20,G39A U79C,0.0723
21,A45U G68U,0.845
22,U37C G76A,0.972
23,C22G U72A,0.196
24,A45G C49A,0.872

row,Variant,self-cleavage
1,G5C A43C,0
2,A16U C21G,0.0665
3,C22U C32G,0.0941
4,G28C C32A,0.154
5,G29C C86U,0.0739
6,G6A C57U,0.665
7,C58A G73C,0.68
8,U23G G76U,1.05
9,C13G C66A,0.0339
10,C26U G52C,0.9
11,C14G U37G,0
12,C41A U72G,0.712
13,U12C U27C,0.222
14,G40C G80C,0.0608
15,U9C G50U,1.02
16,G10C A71C,0.802
17,C22G C49A,0.131
18,A51U A87C,0.959
19,G68A A87G,0.995
20,U47A U79G,0.895
21,C7A A56C,0.831
22,G35U U37G,0.095
23,G81C A87C,0.269
24,G25C C75G,0.185

row,Variant,self-cleavage
1,C22G A78C,0.131
2,G1C G55A,0.106
3,G38A A78G,0.0755
4,U12A G82U,0.161
5,A45C G50U,0.494
6,C24A A42U,0.0639
7,C24G C26U,0.514
8,C22A G28A,0.148
9,A16C C61A,0.332
10,C19U C48G,0.0594
11,G39A A83G,0.507
12,G73A G82A,0.18
13,A51U C61G,0.831
14,U12A C22U,0.0426
15,G2C G11A,0.0455
16,G5C U23G,0.0615
17,G40C G74U,0.202
18,U37A G38U,0.151
19,U27C U65G,0.831
20,U37G G53U,0.157
21,G59U U69G,1.14
22,C19A C30G,0.0437
23,C61U G68U,0.95
